Source: US20140271635A1 (Novartis, published 2014)
Positions count from the first letter of the chain named.

T1: full length human CD19 expressed on mouse preB cell line 300.19 (300.19-hsCD19FL) (human, UniProt P15391 20-556)
T1 construct: whole, on cells; also called hCD19; 300.CD19
T1 sequence (looked up): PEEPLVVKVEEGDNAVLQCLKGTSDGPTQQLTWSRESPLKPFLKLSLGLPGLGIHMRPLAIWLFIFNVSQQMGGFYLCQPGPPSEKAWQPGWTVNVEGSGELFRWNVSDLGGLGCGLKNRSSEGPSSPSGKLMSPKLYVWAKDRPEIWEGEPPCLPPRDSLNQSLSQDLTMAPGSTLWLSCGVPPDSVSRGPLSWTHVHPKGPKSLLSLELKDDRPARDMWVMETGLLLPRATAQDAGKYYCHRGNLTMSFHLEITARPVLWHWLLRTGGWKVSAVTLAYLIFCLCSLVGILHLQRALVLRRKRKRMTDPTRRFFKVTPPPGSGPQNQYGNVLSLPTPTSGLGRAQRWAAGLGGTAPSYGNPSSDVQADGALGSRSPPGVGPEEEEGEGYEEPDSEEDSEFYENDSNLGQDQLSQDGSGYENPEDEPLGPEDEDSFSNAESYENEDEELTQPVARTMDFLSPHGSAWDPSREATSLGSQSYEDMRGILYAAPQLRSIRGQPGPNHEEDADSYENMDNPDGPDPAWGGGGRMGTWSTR

B1: 103101 CAR1 Soluble scFv (scFv)
scFv: EIVMTQSPATLSLSPGERATLSCRASQDISKYLNWYQQKPGQAPRLLIYHTSRLHSGIPARFSGSGSGTDYTLTISSLQPEDFAVYFCQQGNTLPYTFGQGTKLEIKGGGGSGGGGSGGGGSQVQLQESGPGLVKPSETLSLTCTVSGVSLPDYGVSWIRQPPGKGLEWIGVIWGSETTYYSSSLKSRVTISKDNSKNQVSLKLSSVTAADTAVYYCAKHYYYGGSYAMDYWGQGTLVTVSSHHHHHHHH
notes: Built here without the leader
B2: 103102 CAR2 - Soluble scFv (scFv)
scFv: B1 scFv with S182Q
notes: Built here without the leader
B3: 99789 CAR5 - Soluble scFv (scFv)
scFv: EIVMTQSPATLSLSPGERATLSCRASQDISKYLNWYQQKPGQAPRLLIYHTSRLHSGIPARFSGSGSGTDYTLTISSLQPEDFAVYFCQQGNTLPYTFGQGTKLEIKGGGGSGGGGSGGGGSGGGGSQVQLQESGPGLVKPSETLSLTCTVSGVSLPDYGVSWIRQPPGKGLEWIGVIWGSETTYYSSSLKSRVTISKDNSKNQVSLKLSSVTAADTAVYYCAKHYYYGGSYAMDYWGQGTLVTVSSHHHHHHHH
notes: Built here without the leader
B4: 99790 CAR6 - Soluble scFv (scFv)
scFv: B3 scFv with S187Q
notes: Built here without the leader
B5: 100796 CAR7 - Soluble scFv (scFv)
scFv: QVQLQESGPGLVKPSETLSLTCTVSGVSLPDYGVSWIRQPPGKGLEWIGVIWGSETTYYSSSLKSRVTISKDNSKNQVSLKLSSVTAADTAVYYCAKHYYYGGSYAMDYWGQGTLVTVSSGGGGSGGGGSGGGGSGGGGSEIVMTQSPATLSLSPGERATLSCRASQDISKYLNWYQQKPGQAPRLLIYHTSRLHSGIPARFSGSGSGTDYTLTISSLQPEDFAVYFCQQGNTLPYTFGQGTKLEIKHHHHHHHH
notes: Built here without the leader
B6: 100798 CAR8 - Soluble scFv (scFv)
scFv: B5 scFv with S60Q
notes: Built here without the leader
B7: 103104 CAR 3 - Soluble scFv (scFv)
scFv: QVQLQESGPGLVKPSETLSLTCTVSGVSLPDYGVSWIRQPPGKGLEWIGVIWGSETTYYSSSLKSRVTISKDNSKNQVSLKLSSVTAADTAVYYCAKHYYYGGSYAMDYWGQGTLVTVSSGGGGSGGGGSGGGGSEIVMTQSPATLSLSPGERATLSCRASQDISKYLNWYQQKPGQAPRLLIYHTSRLHSGIPARFSGSGSGTDYTLTISSLQPEDFAVYFCQQGNTLPYTFGQGTKLEIKHHHHHHHH
notes: Built here without the leader
B8: 103106 CAR4 - Soluble scFv (scFv)
scFv: B7 scFv with S60Q
notes: Built here without the leader

These binders were tested against T1, full length human CD19 expressed on … (assay: flow cytometry on mouse 300.19 cells expressing hCD19, His-tagged scFv).
Procedure: Mouse cell line 300.CD19 were grown in RPMI 1640 with 0.5 mg/ml Zeocin. Around 5e5 cells/per well were transferred to the BD Falcon 96 well plate. The cells were spin down at 900 rpm (Sorval Legend XT centrifuge) for 3 minutes. The supernatant were removed. Anti-CD19 scFv protein samples were diluted in DPBS with 5% FBS. The samples were added into the wells, mixed well with the cells and incubated for 1 hour. The cells were washed twice in the DPBS with 5% FBS. The cells were incubated with antipoly His PE (R&D) for 1 hour, washed twice before FACS analysis (LSRII from BD Biosciences).

Row | binding result | Binder
1 | binds | B1
2 | binds | B2
3 | binds | B3
4 | binds | B4
5 | binds | B5
6 | binds | B6
7 | binds | B7
8 | binds | B8
